# Test results: US12559545 (VANDERBILT UNIVERSITY, dated 2026)
# Where a chain is given by its changes, count along the chain named.
# T1: NiVM-G
# T1 chain: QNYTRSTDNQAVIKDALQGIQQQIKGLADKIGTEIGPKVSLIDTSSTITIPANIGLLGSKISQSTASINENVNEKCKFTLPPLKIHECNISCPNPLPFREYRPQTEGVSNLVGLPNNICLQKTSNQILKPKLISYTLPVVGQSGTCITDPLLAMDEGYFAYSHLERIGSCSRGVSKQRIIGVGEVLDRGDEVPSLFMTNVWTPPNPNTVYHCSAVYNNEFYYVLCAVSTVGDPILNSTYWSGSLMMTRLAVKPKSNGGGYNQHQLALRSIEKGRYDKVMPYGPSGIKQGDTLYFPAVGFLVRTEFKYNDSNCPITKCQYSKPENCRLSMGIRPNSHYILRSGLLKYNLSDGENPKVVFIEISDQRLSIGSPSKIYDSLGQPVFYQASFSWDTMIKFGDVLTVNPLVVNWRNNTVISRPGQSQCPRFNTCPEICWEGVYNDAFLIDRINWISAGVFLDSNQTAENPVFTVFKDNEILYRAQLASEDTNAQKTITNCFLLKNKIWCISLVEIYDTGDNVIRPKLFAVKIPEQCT
# T2: HeV-G
# T2 chain: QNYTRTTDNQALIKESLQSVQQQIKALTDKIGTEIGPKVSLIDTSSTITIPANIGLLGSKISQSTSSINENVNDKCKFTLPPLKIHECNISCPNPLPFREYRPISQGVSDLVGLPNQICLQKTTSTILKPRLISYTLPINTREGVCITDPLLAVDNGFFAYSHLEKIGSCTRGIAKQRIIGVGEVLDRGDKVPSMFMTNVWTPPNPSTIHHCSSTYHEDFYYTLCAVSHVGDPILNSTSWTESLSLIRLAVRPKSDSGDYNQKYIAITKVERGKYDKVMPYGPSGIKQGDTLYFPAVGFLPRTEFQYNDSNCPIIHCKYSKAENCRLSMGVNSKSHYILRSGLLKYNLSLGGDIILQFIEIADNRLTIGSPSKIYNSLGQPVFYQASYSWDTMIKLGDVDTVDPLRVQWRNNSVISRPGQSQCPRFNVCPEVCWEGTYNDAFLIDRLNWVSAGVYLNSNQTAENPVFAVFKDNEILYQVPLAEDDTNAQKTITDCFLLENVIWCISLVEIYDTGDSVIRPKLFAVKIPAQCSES
# B1: HENV-117 (antibody, V domains shown)
# VH: QVQLQQWGAGLLKPSETLSLTCDLSGGSFTNYYWTWIRHLPGKGLEWLGEINHSGRTNYSPSLKSRVTISVDTSKNQFSLRLSSVTAADTAVYYCARDIRKLAPKPHSYDLYYGMDVWGQGTTVTVSS
# VL: EIVLTQSPGTLSLSPGERATLSCRASQSVGSNYLTWYQQKPGQPPRLLIYGASNRAAGIPDRFSGSGSGTDFTLTISRLEPEDFAVYYCQQYETSSRTFGQGTKVDIR
# B2: HENV-98 (antibody, V domains shown)
# VH: AVQLVESGGGLVQPGGSLRLSCEASGFTFSGYWMSWVRQAPGKGLEWVANIKGDGSEKYYVDSVKGRFTIFRDNAKTSLYLQVNSLRAEDTAVYYCARERHFLAARPGYYIYSGLDVWGPGTTVTVSS
# VL: DIQMTQSPSSLSASVGDRVTITCRASQSIDNYLNWYQQKPGKVPKLLIYAASNLQSGVPSKFSGGGSGTDFTLTISSLQPDDFATYYCQQSFGTPRTFGQGTRVEIK
# B3: HENV-100 (antibody, V domains shown)
# VH: QVQLVQSGAEVKKPGASVKVSCKASGYTFTSYYINWVRQAPGQGLEWVGTINPSGGSTTYAQKFQGRVTVTRDTSTSTVYMDLSGLRSGDTAVYYCARDRKGLAATPVYSDYYYGMDVWGQGTTVTVSS
# VL: EIVLTQSPATLSLSPGERATLSCRASQSVSSFLAWYQQKPGQAPRLLISDASKRATGIPARFSGSGSGTDFSLTISSLEAEDFAVYYCQQSTNWRITFGQGTRLELK
# B4: HENV-103 (antibody, V domains shown)
# VH: QVQLQGSGPGLVKPSQTLSLTCSVSGGSVSRSGYYWGWIRQHPGKGLECIGYIYYSGITYYNPSLSGRLTISVDTSKNQFSLELSSVTAADTAVYYCARVWLGGGVFDFWGQGSLVTVSS
# VL: EIVMTQSPATLSVSPGEGATLSCRASQSVSSNLAWYQQKPGQAPRLLIYDASTRATGIPARFSGSGSGTEFTLTISSLQSEDFAVYYCQQYNDWRTFGRGTKVEMR
# B5: HENV-170 (antibody, V domains shown)
# VH: EVQLLESGGGLVQPGGSLRLSCAASGFTFSSYTMSWVRQAPGKGLEWVSGISGSGGNTYYAGSVKGRFTISRDNSKNTLYLQMNSLRAEDTAVYYCAKDGYTGQQLMRRGPWWFDPWGQGTLVTVSS
# VL: SYVLTQPPSVSVAPGQTARITCGGNNIGSKSVHWYQQKPGQAPVLVVYDDSDRPSGIPERFSGSKSGNTATLTISRVEAGDEADYYCQVWDSSSDHVVFGGGTKLTVL
# B6: HENV-150 (antibody, V domains shown)
# VH: EVQLLESGGGLVQPGGSLRLSCAASGFTFSSSAMSWVRQTPGKGLEWVSTISGSGANTYYAASVKGRFPISRDNSKNTLFLQMNSLRAEDTAVYYCAKVSTVTFGGHVPRGSYFDYWGQGTQVTVSS
# VL: B5 VL with T21P, D50E, S51N, G63A, S93R, V97Y, G101T, L105V
# B7: HENV-142 (antibody, V domains shown)
# VH: QVRLQESGPRLVKPSQTLSLTCTVSGGSISSRDYYWSWIRQHPGKGLEWIGYIYYSGTTYYNPSLESRVTLSLDTSKNQFSLDLTSVTAADTAVYHCARVWLGGGVFDFWGQGTLVTVSA
# VL: EIVMTQSPDTLSVSPGERATLSCRASHSVTTNLAWYQQRPGQAPRLLIFDASTRATGIPARFSGSGSGTEFTLTIGSLQSEDFAVYYCQQYNDGRTFGQGTKVEIK
# B8: HENV-122 (antibody, V domains shown)
# VH: EVQLLESGGGLVQPGGSLRLSCAASGFTFSTNAMSWVRQAPGKGLEWVSTVSGSGAHPNYGDSVKGRFTISRVNSKNTLFLQMSSLRAEDTAIYYCARVSTVTVGGHIPRGYYFDYWGQGTLVTVSS
# VL: EILLTQSPGTLSLSPGERATLSCRASQSASSSYLAWYQQKPGQAPRLLIYGASTRATGIPDRFSGSGSGTEFTLTISRLESEDFAVYYCHHYGSSRTFGQGTKVEVK
# B9: HENV-242 (antibody, V domains shown)
# VH: QVQLVQSGAEVKKPGSSVTVSCKTSGGTFSGYAVSWVRQAPGQGLEWMGRIVPQFNIPNYAQKFQDRVTITADESTGTSYMELSSLRSDDTAVFYCARENIQTIFGVVAMMGGGGYFDSWGQGTLVTVSS
# VL: DIQMTQSPSSLSASVGDRVTITCQANQDINTYLNWYLQKPGKAPQLLVFDASNLVTGVPSRFSGGGSRTDFTLTIDSLQPEDIGTYYCQQYDHLPRRTFTFGPGTKVDLK
# B10: HENV-226 (antibody, V domains shown)
# VH: EERLVQSGGGLAQPGQSLRLSCAGFGFTFTRYEMNWVRQAPGKGLEWIAHISTRGDTISYADSVKGRATISRDDTNNSLDLQMDSLRAEDTAIYFCARDRGSLSTRPPDSYHYYYHGMDVWGQGTTVIVSS
# VL: EIVLTQSPATLSLSPGERATLSCRASQSIDTYLAWYQQKPGQAPRLLIYDASNRATGIPARFSGSGSGTDFSLTISSLEPDDFAVYYCQQRSNRPPRYTFGLGTRLEIK
# B11: HENV-58 (antibody, V domains shown)
# VH: QVQLVQSGAEVKKPGSSVKVSCKASGGTFSNYVISWVRQAPGQGFEWMGRIIPMIGISNYAQKFQDRVTITADKDESTTTAYMELRGLRSEDTAMYYCASSTVTEVGAWGQGTLVTVSS
# VL: AIQLTQSPSSLSASIGDRVTITCRASQGISSALAWFQQKPGKPPILLIYDASSLESGVPARFSGSGSGTDFTLTISSLQPEDFATYYCQQFYNHPLTFGPGTKVDIK
# B12: HENV-141 (antibody, V domains shown)
# VH: QVQLVQSGAEVKKPGSSVKVSCKASGGTFSSYTISWVRQAPGQGLEWMGRIIPISGITNYAQKFQGRVTITADKSTSTAYMELSSLRSEDTAVYYCAKDCYYGSGTYYGCRADYQWHHTMDVWGQGTTVTVSS
# VL: DIQMTQSPSSLSASVGDRVTITCRASQGIRNDLGWFQQKPGKAPKRLIYAASSLQSGVPSRFSGSGSGTEFTLTISSLQPEDFATYFCLQHNTYPLTFGQGTKVEIK
# B13: HENV-99 (antibody, V domains shown)
# VH: QVLLVQSGAEVRKPGASVKVSCRASGYTFTDYYMHWVRQAPGQGLEWMGWINPNSGATKYAQKFQGRVTLTRDTSINTAYMELSGLRSVDTAVFYCASVPPSGFFYWGSDYWGQGTLVTVSS
# VL: DVVLTQSPLSLPVTLGQPASISCRSSQSLVYSDGTTYLNWFQQRPGQSPRRLIYKVSYRDSGVPDRFSGSGSGTDFTLEISRVEAEDVGIYYCMHGTHWETWTFGQGTKVEIK
# B14: HENV-184 (antibody, V domains shown)
# VH: QVQLVQSGTEVKNPGSSVKVSCKASGGTFSGFGISWVRQAPGQGLEWMGGVLPIFGSPNYAQKFQGRVTITADESTGTAYMDLSSLRSDDTAMYYCARDQSGGFFDYWGQGTLVIVSS
# VL: EIVLTQSPATLSLSPGERATLSCRASQSVSSNLAWYQQKPGQAPRLLIYDASDRATGVPARFSGSGSGTDFTLTISSLEPEDFALYYCQQRYNWRVTFGQGTRLEIK
# B15: HENV-222 (antibody, V domains shown)
# VH: QVQLQESGPGLVKPSETLSLTCTVSGGSIDSYYWSWIRQPAGKGLEWIGRIYPSGTTNYNPSLKSRVTMSVDTSKNQFSLKVTSVTAADTAVYYCARMQTGFGSSLFFVPYFDNWGQGTLVTVSS
# VL: B14 VL with N32Y, D53N, V58I, L85V, Y92G, R95P, V96L, Q100G, R103K, L104V
# Target: T1, NiVM-G
row,Binder,EC50 [pM]
1,B1,1230
2,B2,396
3,B3,316
4,B4,611
5,B5,378
6,B6,270
7,B7,1030
8,B8,407
9,B9,716
10,B10,259
11,B11,739
12,B12,266
13,B13,294
14,B14,622
15,B15,586

# Target: T2, HeV-G
row,Binder,EC50 [pM]
1,B1,1060
2,B2,434
3,B3,469
4,B4,806
5,B5,518
6,B6,328
7,B7,1860
8,B8,387
9,B9,6600
10,B11,1140
11,B12,326
12,B13,420
13,B14,1190
14,B15,5660
